In patent US20240401082A1 (Sanofi, published 2024):

B1: construct #6: αBb scFv-(G4S)2-αC1s scFv (bispecific antibody)
chain: EVQLVESGGGLVKPGGSLRLSCAASGFTFSNYAMSWVRQAPGKRLEWVATISNRGSYTYYPDSVKGRFTISRDNAKNSLYLQMNSLRAEDTALYYCARERPMDYWGQGTLVTVSSGGGGSGGGGSGGGGSDIQMTQSPSTLSASVGDRVTITCKASQDVGTAVAWYQQKPGKAPKLLIYWASTRHTGVPDRFSGSGSGTDFTLTISSLQAEDFAVYFCHQHSSNPLTFGQGTKLEIKGGGGSGGGGSQVQLVQSGAEVKKPGASVKLSCTASGFNIKDDYIHWVKQAPGQGLEWIGRIDPADGHTKYAPKFQVKVTITADTSTSTAYLELSSLRSEDTAVYYCARYGYGREVFDYWGQGTTVTVSSGGGGSGGGGSGGGGSDIVLTQSPDSLAVSLGERATISCKASQSVDYDGDSYMNWYQQKPGQPPKILIYDASNLESGIPARFSGSGSGTDFTLTISSLEPEDFAIYYCQQSNEDPWTFGGGTKVEIK
B2: construct #8: αBb scFab-(G4S)3-αC1s scFab (bispecific antibody)
chain: DIQMTQSPSTLSASVGDRVTITCKASQDVGTAVAWYQQKPGKAPKLLIYWASTRHTGVPDRFSGSGSGTDFTLTISSLQAEDFAVYFCHQHSSNPLTFGQGTKLEIKRTVAAPSVFIFPPSDEQLKSGTASVVCLLNNFYPREAKVQWKVDNALQSGNSQESVTEQDSKDSTYSLSSTLTLSKADYEKHKVYACEVTHQGLSSPVTKSFNRGECGGGGSGGGGSGGGGSGGGGSGGGGSGGGGSGGGGSEVQLVESGGGLVKPGGSLRLSCAASGFTFSNYAMSWVRQAPGKRLEWVATISNRGSYTYYPDSVKGRFTISRDNAKNSLYLQMNSLRAEDTALYYCARERPMDYWGQGTLVTVSSASTKGPSVFPLAPCSRSTSESTAALGCLVKDYFPEPVTVSWNSGALTSGVHTFPAVLQSSGLYSLSSVVTVPSSSLGTKTYTCNVDHKPSNTKVDKRVGGGGGSGGGGSGGGGSDIVLTQSPDSLAVSLGERATISCKASQSVDYDGDSYMNWYQQKPGQPPKILIYDASNLESGIPARFSGSGSGTDFTLTISSLEPEDFAIYYCQQSNEDPWTFGGGTKVEIKRTVAAPSVFIFPPSDEQLKSGTASVVCLLNNFYPREAKVQWKVDNALQSGNSQESVTEQDSKDSTYSLSSTLTLSKADYEKHKVYACEVTHQGLSSPVTKSFNRGECGGGGSGGGGSGGGGSGGGGSGGGGSGGGGSGGGGSQVQLVQSGAEVKKPGASVKLSCTASGFNIKDDYIHWVKQAPGQGLEWIGRIDPADGHTKYAPKFQVKVTITADTSTSTAYLELSSLRSEDTAVYYCARYGYGREVFDYWGQGTTVTVSSASTKGPSVFPLAPCSRSTSESTAALGCLVKDYFPEPVTVSWNSGALTSGVHTFPAVLQSSGLYSLSSVVTVPSSSLGTKTYTCNVDHKPSNTKVDKRV
notes: Signal peptide marked by boldface only
B3: construct #5: αC1s scFv-(G4S)2-αBb scFv (bispecific antibody)
chain: QVQLVQSGAEVKKPGASVKLSCTASGFNIKDDYIHWVKQAPGQGLEWIGRIDPADGHTKYAPKFQVKVTITADTSTSTAYLELSSLRSEDTAVYYCARYGYGREVFDYWGQGTTVTVSSGGGGSGGGGSGGGGSDIVLTQSPDSLAVSLGERATISCKASQSVDYDGDSYMNWYQQKPGQPPKILIYDASNLESGIPARFSGSGSGTDFTLTISSLEPEDFAIYYCQQSNEDPWTFGGGTKVEIKGGGGSGGGGSEVQLVESGGGLVKPGGSLRLSCAASGFTFSNYAMSWVRQAPGKRLEWVATISNRGSYTYYPDSVKGRFTISRDNAKNSLYLQMNSLRAEDTALYYCARERPMDYWGQGTLVTVSSGGGGSGGGGSGGGGSDIQMTQSPSTLSASVGDRVTITCKASQDVGTAVAWYQQKPGKAPKLLIYWASTRHTGVPDRFSGSGSGTDFTLTISSLQAEDFAVYFCHQHSSNPLTFGQGTKLEIK
B4: construct #19: αC1s scFab-(G4S)3-αBb F2A Fab (bispecific antibody)
chain: DIVLTQSPDSLAVSLGERATISCKASQSVDYDGDSYMNWYQQKPGQPPKILIYDASNLESGIPARFSGSGSGTDFTLTISSLEPEDFAIYYCQQSNEDPWTFGGGTKVEIKRTVAAPSVFIFPPSDEQLKSGTASVVCLLNNFYPREAKVQWKVDNALQSGNSQESVTEQDSKDSTYSLSSTLTLSKADYEKHKVYACEVTHQGLSSPVTKSFNRGECGGGGSGGGGSGGGGSGGGGSGGGGSGGGGSGGGGSQVQLVQSGAEVKKPGASVKLSCTASGFNIKDDYIHWVKQAPGQGLEWIGRIDPADGHTKYAPKFQVKVTITADTSTSTAYLELSSLRSEDTAVYYCARYGYGREVFDYWGQGTTVTVSSASTKGPSVFPLAPCSRSTSESTAALGCLVKDYFPEPVTVSWNSGALTSGVHTFPAVLQSSGLYSLSSVVTVPSSSLGTKTYTCNVDHKPSNTKVDKRVGGGGSGGGGSGGGGSEVQLVESGGGLVKPGGSLRLSCAASGFTFSNYAMSWVRQAPGKRLEWVATISNRGSYTYYPDSVKGRFTISRDNAKNSLYLQMNSLRAEDTALYYCARERPMDYWGQGTLVTVSSASTKGPSVFPLAPCSRSTSESTAALGCLVKDYFPEPVTVSWNSGALTSGVHTFPAVLQSSGLYSLSSVVTVPSSSLGTKTYTCNVDHKPSNTKVDKRV
light: DIQMTQSPSTLSASVGDRVTITCKASQDVGTAVAWYQQKPGKAPKLLIYWASTRHTGVPDRFSGSGSGTDFTLTISSLQAEDFAVYFCHQHSSNPLTFGQGTKLEIKRTVAAPSVFIFPPSDEQLKSGTASVVCLLNNFYPREAKVQWKVDNALQSGNSQESVTEQDSKDSTYSLSSTLTLSKADYEKHKVYACEVTHQGLSSPVTKSFNRGEC
B5: construct #13: αC1s scFab-(G4S)2-αBb scFv (bispecific antibody)
chain: DIVLTQSPDSLAVSLGERATISCKASQSVDYDGDSYMNWYQQKPGQPPKILIYDASNLESGIPARFSGSGSGTDFTLTISSLEPEDFAIYYCQQSNEDPWTFGGGTKVEIKRTVAAPSVFIFPPSDEQLKSGTASVVCLLNNFYPREAKVQWKVDNALQSGNSQESVTEQDSKDSTYSLSSTLTLSKADYEKHKVYACEVTHQGLSSPVTKSFNRGECGGGGSGGGGSGGGGSGGGGSGGGGSGGGGSGGGGSQVQLVQSGAEVKKPGASVKLSCTASGFNIKDDYIHWVKQAPGQGLEWIGRIDPADGHTKYAPKFQVKVTITADTSTSTAYLELSSLRSEDTAVYYCARYGYGREVFDYWGQGTTVTVSSASTKGPSVFPLAPCSRSTSESTAALGCLVKDYFPEPVTVSWNSGALTSGVHTFPAVLQSSGLYSLSSVVTVPSSSLGTKTYTCNVDHKPSNTKVDKRVGGGGSGGGGSEVQLVESGGGLVKPGGSLRLSCAASGFTFSNYAMSWVRQAPGKRLEWVATISNRGSYTYYPDSVKGRFTISRDNAKNSLYLQMNSLRAEDTALYYCARERPMDYWGQGTLVTVSSGGGGSGGGGSGGGGSDIQMTQSPSTLSASVGDRVTITCKASQDVGTAVAWYQQKPGKAPKLLIYWASTRHTGVPDRFSGSGSGTDFTLTISSLQAEDFAVYFCHQHSSNPLTFGQGTKLEIK
notes: Residues 1-20 were left out as the signal peptide, which is marked by boldface only

Columns and labels:
[1] = target: T1, human complement factor Bb (human, UniProt P00751 260-764); assay: cell-based or functional assay
[2] = target: T2, human complement C1s enzyme (activated C1s) (human, UniProt P09871 16-437; P09871 438-688); assay: cell-based or functional assay
T2 sequence 1: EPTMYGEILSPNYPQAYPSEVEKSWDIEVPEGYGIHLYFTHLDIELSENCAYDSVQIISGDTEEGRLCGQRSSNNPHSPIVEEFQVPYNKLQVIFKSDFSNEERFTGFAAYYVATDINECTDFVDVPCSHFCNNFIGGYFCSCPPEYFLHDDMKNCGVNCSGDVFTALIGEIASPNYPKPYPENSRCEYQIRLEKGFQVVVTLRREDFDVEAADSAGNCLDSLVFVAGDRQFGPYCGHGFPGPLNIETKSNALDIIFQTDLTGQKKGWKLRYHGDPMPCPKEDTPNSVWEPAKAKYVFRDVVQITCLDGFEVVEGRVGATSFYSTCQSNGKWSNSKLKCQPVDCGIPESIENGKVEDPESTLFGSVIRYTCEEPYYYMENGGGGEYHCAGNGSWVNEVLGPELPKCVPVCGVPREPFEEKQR
T2 sequence 2: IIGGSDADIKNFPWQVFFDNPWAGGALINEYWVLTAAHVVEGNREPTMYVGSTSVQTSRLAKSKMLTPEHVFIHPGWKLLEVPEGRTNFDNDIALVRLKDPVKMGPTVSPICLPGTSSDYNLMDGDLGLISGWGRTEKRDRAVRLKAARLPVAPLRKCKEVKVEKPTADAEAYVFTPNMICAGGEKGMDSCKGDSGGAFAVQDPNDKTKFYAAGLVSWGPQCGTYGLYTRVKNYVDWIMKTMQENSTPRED

[3] = target: T1, human complement factor Bb; assay: BLI (Octet), biotinylated target on streptavidin sensor
Text: (§1) Bio-layer interferometry (BLI) was used to assess the recombinant proteins' target engagement to and binding affinity for complement C1s enzyme (active C1s or “C1s” herein) and factor Bb (Bb) (Complement Technology, Tyler, TX, USA). C1s and Bb were biotinylated with EZ-Link™ Sulfo-NHS-LC-LC-Biotin (Thermo Fisher, Waltham, MA, USA) according to manufacturer instructions. Biotinylated C1s or Bb was loaded on Octet® Streptavidin (SA) Biosensors (Sartorius, Göttingen, Germany), followed by a concentration range of purified proteins. To assess dual target engagement, biotinylated active C1s or Bb was loaded onto sensors, followed by purified proteins (“first association phase”), followed by the non-captured complement target (Bb or active C1s, non-biotinylated; “second association phase”). The assays were performed at 30° C. using PBS with 0.1% Tween 20 as a diluent (FIG. 3).

[4] = target: T2, human complement C1s enzyme (activated …); assay: as above
Text: as §1

T1 sequence (P00751 260-764): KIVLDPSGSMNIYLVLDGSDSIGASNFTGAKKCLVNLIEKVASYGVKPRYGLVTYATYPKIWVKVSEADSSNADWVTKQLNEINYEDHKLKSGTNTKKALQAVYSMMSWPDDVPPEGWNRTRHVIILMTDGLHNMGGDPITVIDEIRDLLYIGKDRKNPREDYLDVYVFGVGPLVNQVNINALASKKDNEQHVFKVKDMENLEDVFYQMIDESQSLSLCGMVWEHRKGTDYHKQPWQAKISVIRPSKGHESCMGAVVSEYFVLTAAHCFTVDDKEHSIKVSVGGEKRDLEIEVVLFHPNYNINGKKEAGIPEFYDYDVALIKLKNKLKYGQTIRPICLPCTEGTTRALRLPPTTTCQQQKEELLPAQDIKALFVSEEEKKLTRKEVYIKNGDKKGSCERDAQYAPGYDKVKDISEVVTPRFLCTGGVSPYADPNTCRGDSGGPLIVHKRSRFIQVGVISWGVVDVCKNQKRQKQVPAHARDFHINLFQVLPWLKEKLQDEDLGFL

Binder | IC50 AP (Wieslab); curve not saturated, estimated [1] [nM] | IC50 CP (Wieslab) [2] [nM] | Kd [3] [nM] | koff [3] [s⁻¹] | kon [3] [M⁻¹ s⁻¹] | Kd [4] [nM] | koff [4] [s⁻¹] | kon [4] [M⁻¹ s⁻¹] | IC50 AP (Wieslab) [1] [nM]
B1 | ~1260 | 118 | – | – | – | – | – | – | –
B2 | – | 87.7 | 1.8 | 0.00021 | 120000 | 2.1 | 0.00063 | 300000 | 420
B3 | ~2830 | 216 | – | – | – | – | – | – | –
B4 | ~2090 | 34 | – | – | – | – | – | – | –
B5 | – | 44.4 | 3 | 0.00022 | 70000 | 1 | 0.00029 | 300000 | 201
